Results reported in patent publication US20200353049A1.
Values joined by “and” are separate entries in the source; they are usually repeats but may differ in a detail not shown here. Identical values can stand only once.

Columns and labels:
[1] = target: IL-22R1a extracellular domain (ECD) (UniProt Q8N6P7); experiment: binding ELISA on plate-coated IL-22R1a ECD, relative to Reference Standard (100%); stored -20 C, 36 months
[2] = target: IL-22R1a extracellular domain (ECD) (UniProt Q8N6P7); experiment: binding ELISA on plate-coated IL-22R1a ECD, relative to Reference Standard (100%); stored 5 C, 1 month
[3] = target: IL-22R1a extracellular domain (ECD) (UniProt Q8N6P7); experiment: potency assay (binding ELISA on plate-coated IL-22R1a ECD), relative to reference standard (100%); stored 5 C, 48 months
[4] = target: IL-22R1a extracellular domain (ECD) (UniProt Q8N6P7); experiment: potency assay (binding ELISA on plate-coated IL-22R1a ECD), relative to reference standard (100%); stored 5 C, 12 months
[5] = target: IL-22R1a extracellular domain (ECD) (UniProt Q8N6P7); experiment: potency assay (binding ELISA on plate-coated IL-22R1a ECD), relative to reference standard; 40 C stress, day 10
[6] = target: IL-22R1a extracellular domain (ECD) (UniProt Q8N6P7); experiment: binding ELISA on plate-coated IL-22R1a ECD, relative to Reference Standard (100%); stored 5 C, 6 months
[7] = target: IL-22R1a extracellular domain (ECD) (UniProt Q8N6P7); experiment: potency assay (binding ELISA on plate-coated IL-22R1a ECD), relative to reference standard (100%); stored 5 C, 36 months
[8] = target: IL-22R1a extracellular domain (ECD) (UniProt Q8N6P7); experiment: potency assay (binding ELISA on plate-coated IL-22R1a ECD), relative to reference standard (100%); stored 5 C, 3 months
[9] = target: IL-22R1a extracellular domain (ECD) (UniProt Q8N6P7); experiment: potency assay (binding ELISA on plate-coated IL-22R1a ECD); change after 2 weeks at 40 C; this end matches Clinical Batch 3 in Table 26 (85 to 57)
[10] = target: IL-22R1a extracellular domain (ECD) (UniProt Q8N6P7); experiment: potency assay (binding ELISA on plate-coated IL-22R1a ECD), relative to reference standard (100%); stored 5 C, 6 months
[11] = target: IL-22R1a extracellular domain (ECD) (UniProt Q8N6P7); experiment: binding ELISA on plate-coated IL-22R1a ECD, relative to Reference Standard (100%); stored -20 C, 18 months
[12] = target: IL-22R1a extracellular domain (ECD) (UniProt Q8N6P7); experiment: binding ELISA on plate-coated IL-22R1a ECD, relative to Reference Standard; pH 7.0 formulation stored 4 weeks at 30 C
[13] = target: IL-22R1a extracellular domain (ECD) (UniProt Q8N6P7); experiment: potency assay (binding ELISA on plate-coated IL-22R1a ECD), relative to reference standard (100%); stored 25 C, 2 months
[14] = target: IL-22R1a extracellular domain (ECD) (UniProt Q8N6P7); experiment: potency assay (binding ELISA on plate-coated IL-22R1a ECD), relative to reference standard (100%); stored 5 C, 18 months
[15] = target: IL-22R1a extracellular domain (ECD) (UniProt Q8N6P7); experiment: potency assay (binding ELISA on plate-coated IL-22R1a ECD), relative to reference standard (100%); stored 25 C, 3 months
[16] = target: IL-22R1a extracellular domain (ECD) (UniProt Q8N6P7); experiment: potency assay (binding ELISA on plate-coated IL-22R1a ECD); change after 6 months at 25 C (supportive stability study)
[17] = target: IL-22R1a extracellular domain (ECD) (UniProt Q8N6P7); experiment: potency assay (binding ELISA on plate-coated IL-22R1a ECD), relative to reference standard (100%); stored 5 C, 18 months; remark: listed apart in the source
[18] = target: IL-22R1a extracellular domain (ECD) (UniProt Q8N6P7); experiment: binding ELISA on plate-coated IL-22R1a ECD, relative to Reference Standard (100%); stored 5 C, 3 months
[19] = target: IL-22R1a extracellular domain (ECD) (UniProt Q8N6P7); experiment: potency assay (binding ELISA on plate-coated IL-22R1a ECD), relative to reference standard; 40 C stress, day 14
[20] = target: IL-22R1a extracellular domain (ECD) (UniProt Q8N6P7); experiment: potency assay (binding ELISA on plate-coated IL-22R1a ECD), relative to reference standard (100%); stored 5 C, 9 months
[21] = target: IL-22R1a extracellular domain (ECD) (UniProt Q8N6P7); experiment: potency assay (binding ELISA on plate-coated IL-22R1a ECD), relative to reference standard (100%); stored 25 C, 6 months
[22] = target: IL-22R1a extracellular domain (ECD) (UniProt Q8N6P7); experiment: potency assay (binding ELISA on plate-coated IL-22R1a ECD), relative to reference standard (100%); T=0
[23] = target: IL-22R1a extracellular domain (ECD) (UniProt Q8N6P7); experiment: potency assay (binding ELISA on plate-coated IL-22R1a ECD), relative to reference standard; 40 C stress, day 0
[24] = target: IL-22R1a extracellular domain (ECD) (UniProt Q8N6P7); experiment: binding ELISA on plate-coated IL-22R1a ECD, relative to Reference Standard (100%); stored -20 C, 30 months
[25] = target: IL-22R1a extracellular domain (ECD) (UniProt Q8N6P7); experiment: binding ELISA on plate-coated IL-22R1a ECD, relative to Reference Standard (100%); stored 5 C, 2 months
[26] = target: IL-22R1a extracellular domain (ECD) (UniProt Q8N6P7); experiment: potency assay (binding ELISA on plate-coated IL-22R1a ECD), relative to reference standard (100%); stored 5 C, 12 months (time printed as 180/12)
[27] = target: IL-22R1a extracellular domain (ECD) (UniProt Q8N6P7); experiment: binding ELISA on plate-coated IL-22R1a ECD, relative to Reference Standard (100%); stored -20 C, 12 months
[28] = target: IL-22R1a extracellular domain (ECD) (UniProt Q8N6P7); experiment: binding ELISA on plate-coated IL-22R1a ECD, relative to Reference Standard (100%); stored -20 C, 18 months; remark: listed apart in the source

Sequence of UniProt Q8N6P7 (Q8N6P7 16-228 limits assumed): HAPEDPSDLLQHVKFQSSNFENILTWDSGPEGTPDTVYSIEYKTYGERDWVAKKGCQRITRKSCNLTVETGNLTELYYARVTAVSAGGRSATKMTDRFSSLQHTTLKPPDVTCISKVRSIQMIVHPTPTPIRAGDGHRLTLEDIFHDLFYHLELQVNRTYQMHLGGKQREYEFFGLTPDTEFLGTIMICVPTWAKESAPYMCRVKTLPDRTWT

IL-22 Fc fusion protein
Potency by Binding Assay (% relative potency) (% relative potency) [1]: 71
Potency by Binding Assay (% relative potency) (% relative potency) [2]: 73
Potency (% relative potency) (% relative potency) [3]: 65
Potency (% relative potency) (% relative potency) [4]: 67
Potency (% relative potency) (% relative potency) [5]: 84 and 65
Potency by Binding Assay (% relative potency) (% relative potency) [6]: 71
Potency (% relative potency) (% relative potency) [7]: 67
Potency (% relative potency) (% relative potency) [8]: 104
decrease in % relative potency (% relative potency) [9]: 28
Potency (% relative potency) (% relative potency) [10]: 64
Potency by Binding Assay (% relative potency) (% relative potency) [11]: 101
Estimated % relative potency (n = 2) (% relative potency) [12]: 79
Potency (% relative potency) (% relative potency) [13]: 60
Potency (% relative potency) (% relative potency) [14]: 64
Potency (% relative potency) (% relative potency) [15]: 95
loss of % relative potency (% relative potency) [16]: 29
Potency (% relative potency) (% relative potency) [17]: 93
Potency by Binding Assay (% relative potency) (% relative potency) [18]: 73
Potency (% relative potency) (% relative potency) [19]: 71 and 57
Potency (% relative potency) (% relative potency) [20]: 63
Potency (% relative potency) (% relative potency) [21]: 47
Potency (% relative potency) (% relative potency) [22]: 101
Potency (% relative potency) (% relative potency) [23]: 104 and 85
Potency by Binding Assay (% relative potency) (% relative potency) [24]: 70
Potency by Binding Assay (% relative potency) (% relative potency) [25]: 75
Potency (% relative potency) (% relative potency) [26]: 86
Potency by Binding Assay (% relative potency) (% relative potency) [27]: 69
Potency by Binding Assay (% relative potency) (% relative potency) [28]: 70
